Here are results for 16 molecules from US20220112288A1 (published 2022).

Numbering of substitutions follows the chain as printed.

B1: 75110_05E05A (antibody, V domains shown)
VH: QVQLQESGPGLVKPSETLSLTCTVSGGSIGSYYWSWIRQPAGKGLEWIGRIYTSGSTNYNPSLKSRVTMSFDTSKNQFSLKLNSVTAADTAVYYCATDGGVGDSLDYWGQGTLVTVSS
VL: DIVMTQTPLSLPVTPGEPASISCRSSQSLLDSDDGNTYLDWYLQKPGQSPQLLIYTLSYRASGVPDRFSGSGSGTDFTLKISRVEAEDVGVYYCMQHIEFPFTFGPGTKVDIK
notes: Non-clonal AlivaMab Mouse Kappa hybridoma supernatant, captured by anti-mouse IgG Fc (human V regions, mouse Fc)
B2: 75110_03I23A (antibody, V domains shown)
VH: QVQLQESGPGLVKPSETLSLTCTASGGSITSYYWNWIRQPAGKGLEWIGRIYTSGSTNYNPSLKSRVTMSVDTSKNQFSLKLSSVTAADTAVYYCARDPGYSDAFNIWGQGTMVTVSS
VL: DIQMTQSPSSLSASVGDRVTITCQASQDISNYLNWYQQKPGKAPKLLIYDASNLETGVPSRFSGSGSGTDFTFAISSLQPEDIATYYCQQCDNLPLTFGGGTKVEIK
notes: as for B1
B3: 75110_07N04A (antibody, V domains shown)
VH: B2 VH with T23S, A24V, G27V, I29S, Y32F, N35S, E46D, N106A
VL: not shown
notes: as for B1
B4: 75110_07J02A (antibody, V domains shown)
VH: EVQLVESGGGLVQPGGSLRLSCAASGFTFSSYWMSWVRQAPGKGLEWVANIKEDGSEKYYVDSVKGRFTISRDNAKNSLYLQMNSLRAEDTAVYYCARDGSYSGYGMDVWGQGTTVTVSS
VL: AIQMTQSPSSLSASVGDRVTITCRASQGIRNDLGWYQQKPGKAPKLLIYAASSLQSGVPSRFSGRGSGTDFALTISSLQPEDFATYYCLLDYNYPYTFGQGTRLEIK
notes: as for B1
B5: 75110_05G15A (antibody, V domains shown)
VH: QVQLQESGPGLVKPSQTLSLTCTVSGGSISSGGYFWSWIRQHPGKGLEWIGCIYYSGSTYYIPSLKSRVTISVDTSKNQFSLKLRSVTAADTAVYYCARDGYDYWYFDLWGRGTLVTVSS
VL: not shown
B6: 75110_08F20A (antibody, V domains shown)
VH: QVQLQESGPGLVKPSETLSLTCSVSGGSISTYYWSWIRQPAGKGLEWIGRICTTENTNYNPSLKSRVTMSIDSSKNQFSLKLSSVTAADTAVYYCARDLERLNYYGMDVWGQGATVTVSS
VL: DIQMTQSPSSLSASVGDRVTITCQASQDISKYLNWYQQKPGIAPKLLIYDASNLETGVPSRFSGSGSGTDFTFTISSLQPEDFATYYCQQYDSLPITFGQGTRLEIK
notes: as for B1
B7: 75110_02E22A (antibody, V domains shown)
VH: QVQLQESGPGLVKPSETLSLTCTVSGGSISSFYWSWIRQPAGKGLEWIGRIYTSGSTNYNPSLKSRVTMSVDTSKNQFSLKLSSVTAADTAVYYCARELEKRNYYGMDVWGQGTTVTVSS
VL: DIQMTQSPSSLSASVGDRVTITCQASHDISNYLNWYQQKPGKAPKLLIFDASTLETGVPSRFSGSGSGTYFTFTIRSLQPEDIATYYCQQYDSLPLTFGGGTKVEIK
notes: as for B1
B8: 75110_04D20A (antibody, V domains shown)
VH: B7 VH with G26N, S31D, F32Y, V67I, K81E, K101R, R102Y, N103Y, Y104F, M107V
VL: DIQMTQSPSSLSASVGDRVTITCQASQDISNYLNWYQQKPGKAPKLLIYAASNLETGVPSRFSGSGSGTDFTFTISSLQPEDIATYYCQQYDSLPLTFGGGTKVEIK
notes: as for B1
B9: 75110_04H17A (antibody, V domains shown)
VH: QVQLQESGPGLVKPSETLSLTCTVSGGSISTYYWSWIRQSAGKGLEWIGRIYTSERPNYNPSLKSRVTMSVDTSKNQFSLKLNSVSAADTAVYYCARELERPYYYGMDVWGQGTTVTVSS
VL: B7 VL with I2V, D17G, H27Q, F49Y, D50Y, T53N, Y70D, R76S, I83F, S93N
notes: as for B1
B10: 75110_06G04A (antibody, V domains shown)
VH: B7 VH with Q5L, F32Y, T53I, V71I, K75E, K81N, K101R, R102P, N103Y
VL: B7 VL with H27Q, F49Y, D50N, Y70D, R76S, S93N, I106F
notes: as for B1
B11: 75110_06C16A (antibody, V domains shown)
VH: QVQLQESGPGLVTPSETLSLSCTVSGGSISDYYWSWIRQPGGKGLEWIGRIYSSGSTNYNPSLKSRVTMSVDTSKNQFSLKLSSVTAADTAVYFCARDREDYYYYGMDVWGQGTTVTVSS
VL: B7 VL with F49Y, D50A, T53N, Y70D, T72S, R76S, S93H
notes: as for B1
B12: 75110_08D24A (antibody, V domains shown)
VH: B7 VH with S31G, G55E, S56N, E98D, L99R, K101G, R102Y, N103Y
VL: B6 VL with K31N, I42K, D50A, F83I
notes: as for B1
B13: 75110_06K03A (antibody, V domains shown)
VH: B7 VH with S31T, F32Y, Y52N, N58T, K101R, R102Y, N103Y
VL: B7 VL with H27Q, F49Y, D50Y, T53I, Y70D, R76S
notes: as for B1
B14: 75110_08M20A (antibody, V domains shown)
VH: B7 VH with G8D, F32Y, T53A, E98D, L99R, K101G, R102Y, N103Y
VL: B6 VL with I42K, K45N, D50A, F83I, T85A
notes: as for B1
B15: 75110_06E14A (antibody, V domains shown)
VH: B11 VH with T13K, S21T, D31N, Y33F, G41A, S56N, F94Y
VL: B6 VL with K31N, I42K, D50G, N53I, S63T, F83I
notes: as for B1
B16: 75110_02K11A (antibody, V domains shown)
VH: QVQLQESGPGLVKPSQTLSLTCTVSGGSISSGFYYWTWIRQHPGKGLEWIGYISYSGNTYYNPSFKSRLTISVDTSKSQFSLKLSSVTAADTAVYYCARDRPSNFDAFDIWGQGTMVTVSS
VL: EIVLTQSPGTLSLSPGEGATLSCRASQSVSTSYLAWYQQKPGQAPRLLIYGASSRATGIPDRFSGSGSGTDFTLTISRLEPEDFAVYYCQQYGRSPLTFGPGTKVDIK
notes: as for B1

In one assay the target is T1, Recombinant human CD4 (R&D Systems, Cat. 10327-CD) (human, UniProt P01730 26-390, limits assumed).
T1 construct: Bought soluble recombinant protein used as analyte at 100 nM; also called huCD4
The assay is described as follows: BLI (Octet Red384), non-clonal supernatant on AMC sensor, 100 nM human CD4, 1:1 local fit.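 Note: hybridoma antibodies captured from supernatant, single CD4 concentration as analyte, association and dissociation phases fitted together, giving single-point kinetic estimates per supernatant.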
With B1, the Kd – broadly, the constant that tells how readily two partners part at equilibrium – is 0.95 nM; the koff (in general, a measure of how fast the partners let go of each other) was 0.00013 s⁻¹; the kon (in general, the rate constant with which the complex forms) is 140000 M⁻¹ s⁻¹.
On the same counts, the results for B2 are 8.6 nM, 0.0012 s⁻¹ and 140000 M⁻¹ s⁻¹.
B3: the Kd is less than 0.001 nM, the koff was less than 1e-07 s⁻¹ and the kon was determined as 140000 M⁻¹ s⁻¹.
In the same order, the values of B4 are 0.56 nM, 3.83e-05 s⁻¹ and 68400 M⁻¹ s⁻¹.
As for B5, the Kd is less than 0.001 nM, the koff is less than 1e-07 s⁻¹ and the kon came to 78000 M⁻¹ s⁻¹.
In the same order, the values of B6 are 1.9 nM, 0.00026 s⁻¹ and 140000 M⁻¹ s⁻¹.
As for B7, the Kd worked out at 20 nM, the koff was 0.0042 s⁻¹ and the kon amounted to 210000 M⁻¹ s⁻¹.
On the same counts, the results for B8 are 0.88 nM, 0.00013 s⁻¹ and 150000 M⁻¹ s⁻¹.
In the case of B9, the equilibrium dissociation constant (Kd) came to 9 nM, the koff is 0.00097 s⁻¹ and the kon was 110000 M⁻¹ s⁻¹.
On the same counts, the results for B10 are 14 nM, 0.001 s⁻¹ and 75000 M⁻¹ s⁻¹.
On the same counts, the results for B11 are 9.7 nM, 0.0024 s⁻¹ and 250000 M⁻¹ s⁻¹.
On the same counts, the results for B12 are 34 nM, 0.006 s⁻¹ and 170000 M⁻¹ s⁻¹.
B13: the Kd stood at 6.8 nM, the koff stood at 0.0019 s⁻¹ and the kon stood at 280000 M⁻¹ s⁻¹.
On the same counts, the results for B14 are 3.6 nM, 0.00053 s⁻¹ and 150000 M⁻¹ s⁻¹.
On the same counts, the results for B15 are 12 nM, 0.002 s⁻¹ and 170000 M⁻¹ s⁻¹.
On the same counts, the results for B16 are 17 nM, 0.0022 s⁻¹ and 130000 M⁻¹ s⁻¹.

The next assay deals with T1, Recombinant human CD4 (R&D Systems, …). Kind of assay: BLI (Octet Red384), non-clonal supernatant on AMC sensor, 100 nM human CD4. Background: Biolayer interferometry detects binding as a change in optical thickness at a sensor tip.
On to B1, for which the Response was 0.24.
Same read-out and setting: for B2 the value was 0.18; for B3, 0.1; for B4, 0.13.
The same measure, in the same setting: for B5 the value was 0.24; for B6, 0.32.
The same measure, in the same setting: the result for B7 reads 0.18; that for B8, 0.2.
For B9, the Response was determined as 0.16.
As for B10, the Response stood at 0.12.
Same read-out and setting: for B11 the value was 0.07.
The same measure, in the same setting: for B12 the value was 0.21.
Take B13: the Response was found to be 0.14.
The same measure, in the same setting: the result for B14 reads 0.19; that for B15, 0.12.
For the molecule B16, the Response was determined as 0.14.
